# Laboratory results: patent US20190269666A1, “COMBINATION THERAPY WITH MERESTINIB AND ANTI-PD-L1 OR ANTI-PD-1 INHIBITORS FOR USE IN THE TREATMENT OF CANCER” (Eli Lilly and Company, priority 2016, published 2019)
# Columns and labels:
# human PD-L1 [1] = biological target: T1, human PD-L1 (Homo sapiens, UniProt Q9NZQ7); test: Binding kinetics and affinity by surface plasmon resonance (Biacore); parameters: Soluble human PD-L1-Fc fusion protein; conditions: SPR, analysis at 37° C.
# Method: (§1) The kinetics and equilibrium dissociation constant (KD) for human PD-L1 is determined for antibodies of the present invention using surface plasmon resonance (Biacore).
# (§2) Immobilization of antibodies of the present invention as ligand on to sensor chip surface is performed at 25° C. Soluble human PD-L1-Fc fusion protein (and in some cases, cynomolgus monkey PD-L1-Fc fusion proteins) is injected as analyte at concentrations ranging from 0.0123 nM-9 nM. The analysis is performed at 37° C. The contact time for each sample is 180 seconds at 30 μL/minute. The dissociation time was 240-1500 seconds. The immobilized surface is regenerated for 18 seconds with 0.95 M NaCl/25 mM NaOH at 30 μL/minute, and then stabilized for 30 seconds. Binding kinetics are analyzed using the Biacore T200 Evaluation software (Version 3.0). Data are referenced to a blank flow cell, and the data are fit to a 1:1 binding model.
# Target sequence in this assay (Q9NZQ7 19-238 limits assumed): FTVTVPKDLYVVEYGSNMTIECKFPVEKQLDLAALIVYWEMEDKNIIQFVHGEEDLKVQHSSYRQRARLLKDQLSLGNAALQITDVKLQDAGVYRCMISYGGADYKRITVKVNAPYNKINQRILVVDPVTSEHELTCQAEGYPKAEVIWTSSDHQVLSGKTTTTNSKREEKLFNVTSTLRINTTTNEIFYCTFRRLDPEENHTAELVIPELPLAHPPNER
# PD-L1 binding to PD-1 = PD-L1 binding to PD-1 (Homo sapiens, UniProt Q9NZQ7); test: ELISA blocking of the interaction of PD-L1 with PD-1; conditions: after 4 weeks at 4° C., 25° C. and 40° C.
# PD-L1 binding to PD-1, sequence (Q9NZQ7 19-239 limits assumed): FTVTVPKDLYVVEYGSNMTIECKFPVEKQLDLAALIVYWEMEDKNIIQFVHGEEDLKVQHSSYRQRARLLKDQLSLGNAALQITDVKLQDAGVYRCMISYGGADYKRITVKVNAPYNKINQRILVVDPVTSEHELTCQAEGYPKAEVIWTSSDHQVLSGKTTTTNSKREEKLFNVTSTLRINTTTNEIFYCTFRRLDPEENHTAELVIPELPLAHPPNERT
# Method: The ability for antibodies of the present invention to block PD-L1 binding to PD-1 can be measured in an ELISA assay. For the receptor-ligand blocking assay, varying amounts (of anti-PD-L1 antibody or control IgG are mixed with a fixed amount of biotinylated PD-L1-Fc fusion protein (100 ng/well) and incubated at room temperature for 1 hour. The mixture is transferred to 96-well plates pre-coated with PD-1-Fc (1 μg/ml) and then incubated at room temperature for an additional 1 hour. After washing, streptavidin HRP conjugate is added, and the absorbance at 450 nm is read. IC50 represents the antibody concentration required for 50% inhibition of PD-L1 binding to PD-1.
# human PD-L1 [2] = biological target: T1, human PD-L1; test: ELISA binding to recombinant PD-L1; parameters: purchased R&D Systems; conditions: after 4 weeks at 4° C., 25° C. and 40° C.
# Method: The ability for antibodies of the present invention to bind human PD-L1 can be measured with an ELISA assay. For the PD-L1 binding assay, a 96-well plate (NUNC®) is coated with human PD-L1-Fc (R&D Systems) overnight at 4° C. Wells are blocked for 2 hours with blocking buffer (PBS containing 5% nonfat dry milk). Wells are washed three times with PBS containing 0.1% TWEEN®-20. Anti-PD-L1 antibody or control IgG (100 μL) is then added and incubated at room temperature for 1 hour. After washing, the plate is incubated with 100 μL of goat anti-human IgG F(ab′)2-HRP conjugate (Jackson Immuno Research) at room temperature for 1 hour. The plates are washed and then incubated with 100 μL of 3,3′, 5,5′-tetra-methylbenzidine. The absorbance at 450 nm is read on a microplate reader. The half maximal effective concentration (EC50) is calculated using GraphPad Prism 6 software.
# Target sequence in this assay (Q9NZQ7 with tags, fused parts or gaps limits assumed): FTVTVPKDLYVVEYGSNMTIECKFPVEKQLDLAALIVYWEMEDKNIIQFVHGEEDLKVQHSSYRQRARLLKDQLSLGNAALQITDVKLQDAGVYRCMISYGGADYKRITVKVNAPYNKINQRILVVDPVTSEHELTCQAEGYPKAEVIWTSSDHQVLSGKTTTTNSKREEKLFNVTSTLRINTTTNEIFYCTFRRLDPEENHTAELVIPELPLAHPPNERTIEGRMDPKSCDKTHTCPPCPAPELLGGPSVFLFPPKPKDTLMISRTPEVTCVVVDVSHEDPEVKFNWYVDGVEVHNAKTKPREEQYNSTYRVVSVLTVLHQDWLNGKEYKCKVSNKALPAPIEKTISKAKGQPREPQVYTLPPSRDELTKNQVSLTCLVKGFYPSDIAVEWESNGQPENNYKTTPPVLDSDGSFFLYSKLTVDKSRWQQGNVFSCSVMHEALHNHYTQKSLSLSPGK
# Cyno PD-L1 = test: Binding kinetics and affinity by surface plasmon resonance (Biacore); parameters: species or system cynomolgus monkey; conditions: SPR, analysis at 37° C.
# Method: as §1, §2
substance,measurement,setting,value
"LY3300054: IgG1 variant antibody lacking Fc effector function, that binds human PD-L1; HC SEQ ID NO: 10, LC SEQ ID NO: 11",Koff,human PD-L1 [1],0.000114 s⁻¹
same,Kon,human PD-L1 [1],1.4e+06 M⁻¹ s⁻¹
same,blocking activities after storage,PD-L1 binding to PD-1,retains its blocking activities
same,binding activities after storage,human PD-L1 [2],retains its binding activities
same,Koff,Cyno PD-L1,0.000184 s⁻¹
same,Kon,Cyno PD-L1,1.51e+06 M⁻¹ s⁻¹
